These results are taken from the supplement of paper PMC5998384.

Data set [1] has as its system HeLa Kyoto. Briefly: solubility change mitosis vs G1/S (difference of NP-40 vs SDS log2 ratios) (log2 ratio difference); higher = more soluble in mitosis.
For data set [2], the system named is HeLa Kyoto. Briefly: solubility in G1/S (NP-40 vs SDS abundance) (log2 ratio); higher = more soluble. The following applies: cell cycle stage: G1/S.
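For solubility change mitosis vs G1/S (difference of NP-40 vs SDS log2 ratios) in this document: synchronized HeLa Kyoto cells (double thymidine block for G1/S, nocodazole release for mitosis), protein amounts in NP-40 versus SDS lysates quantified by mass spectrometry, three biological replicates.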
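For solubility in G1/S (NP-40 vs SDS abundance) in this document: HeLa Kyoto cells arrested at G1/S by double thymidine block, proteins quantified by TMT10plex mass spectrometry in mild NP-40 versus SDS extracts, three biological replicates.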

As to “MSGTSKESLGHGGLPGLGKTCLTTMDTKLNMLNEKVDQLLHFQEDVTEKLQSMCRDMGHLERGLHRLEASRAPGPGGADGVPHIDTQAGWPEVLELVRAMQQDAAQHGARLEALFRMVAAVDRAIALVGATFQKSKVADFLMQGRVPWRRGSPGDSPEENKERVEEEGGKPKHVLSTSGVQSDAREPGEESQKADVLEGTAERLPPIRASGLGADPAQAVVSPGQGDGVPGPAQAFPGHLPLPTKVEAKAPETPSENLRTGLELAPAPGRVNVVSPSLEVAPGAGQGASSSRPDPEPLEEGTRLTPGPGPQCPGPPGLPAQARATHSGGETPPRISIHIQEMDTPGEMLMTGRGSLGPTLTTEAPAAAQPGKQGPPGTGRCLQAPGTEPGEQTPEGARELSPLQESSSPGGVKAEEEQRAGAEPGTRPSLARSDDNDHEVGALGLQQGKSPGAGNPEPEQDCAARAPVRAEAVRRMPPGAEAGSVVLDDSPAPPAPFEHRVVSVKETSISAGYEVCQHEVLGGGRFGQVHRCTEKSTGLPLAAKIIKVKSAKDREDVKNEINIMNQLSHVNLIQLYDAFESKHSCTLVMEYVDGGELFDRITDEKYHLTELDVVLFTRQICEGVHYLHQHYILHLDLKPENILCVNQTGHQIKIIDFGLARRYKPREKLKVNFGTPEFLAPEVVNYEFVSFPTDMWSVGVITYMLLSGLSPFLGETDAETMNFIVNCSWDFDADTFEGLSEEAKDFVSRLLVKEKSCRMSATQCLKHEWLNNLPAKASRSKTRLKSQLLLQKYIAQRKWKKHFYVVTAANRLRKFPTSP [MYLK3]”, the “solubility change mitosis (log2)” value in the data set on HeLa Kyoto [1] is -0.0471. In addition, the “solubility in G1/S (log2)” value in the data set on HeLa Kyoto [2] was -0.00349.
As to “MSKKKGLSAEEKRTRMMEIFSETKDVFQLKDLEKIAPKEKGITAMSVKEVLQSLVDDGMVDCERIGTSNYYWAFPSKALHARKHKLEVLESQLSEGSQKHASLQKSIEKAKIGRCETEERTRLAKELSSLRDQREQLKAEVEKYKDCDPQVVEEIRQANKVAKEAANRWTDNIFAIKSWAKRKFGFEENKIDRTFGIPEDFDYID [MND1]”, the “solubility change mitosis (log2)” value with HeLa Kyoto [1] is -0.05. In the data set with HeLa Kyoto [2], the “solubility in G1/S (log2)” value is 0.61.
For the sequence “MSKLPRELTRDLERSLPAVASLGSSLSHSQSLSSHLLPPPEKRRAISDVRRTFCLFVTFDLLFISLLWIIELNTNTGIRKNLEQEIIQYNFKTSFFDIFVLAFFRFSGLLLGYAVLRLRHWWVIAVTTLVSSAFLIVKVILSELLSKGAFGYLLPIVSFVLAWLETWFLDFKVLPQEAEEERWYLAAQVAVARGPLLFSGALSEGQFYSPPESFAGSDNESDEEVAGKKSFSAQEREYIRQGKEATAVVDQILAQEENWKFEKNNEYGDTVYTIEVPFHGKTFILKTFLPCPAELVYQEVILQPERMVLWNKTVTACQILQRVEDNTLISYDVSAGAAGGVVSPRDFVNVRRIERRRDRYLSSGIATSHSAKPPTHKYVRGENGPGGFIVLKSASNPRVCTFVWILNTDLKGRLPRYLIHQSLAATMFEFAFHLRQRISELGARA [STARD3]”, in the data set with HeLa Kyoto [1], the “solubility change mitosis (log2)” value was -0.178. The “solubility in G1/S (log2)” value in the data set with HeLa Kyoto [2] is -0.0414.
For “MSLALRSELVVDKTKRKKRRELSEEQKQEIKDAFELFDTDKDEAIDYHELKVAMRALGFDVKKADVLKILKDYDREATGKITFEDFNEVVTDWILERDPHEEILKAFKLFDDDDSGKISLRNLRRVARELGENMSDEELRAMIEEFDKDGDGEINQEEFIAIMTGDI [CETN3]” the same measures were 0.0873 and 0.133.
With “MSQGPPTGESSEPEAKVLHTKRLYRAVVEAVHRLDLILCNKTAYQEVFKPENISLRNKLRELCVKLMFLHPVDYGRKAEELLWRKVYYEVIQLIKTNKKHIHSRSTLECAYRTHLVAGIGFYQHLLLYIQSHYQLELQCCIDWTHVTDPLIGCKKPVSASGKEMDWAQMACHRCLVYLGDLSRYQNELAGVDTELLAERFYYQALSVAPQIGMPFNQLGTLAGSKYYNVEAMYCYLRCIQSEVSFEGAYGNLKRLYDKAAKMYHQLKKCETRKLSPGKKRCKDIKRLLVNFMYLQSLLQPKSSSVDSELTSLCQSVLEDFNLCLFYLPSSPNLSLASEDEEEYESGYAFLPDLLIFQMVIICLMCVHSLERAGSKQYSAAIAFTLALFSHLVNHVNIRLQAELEEGENPVPAFQSDGTDEPESKEPVEKEEEPDPEPPPVTPQVGEGRKSRKFSRLSCLRRRRHPPKVGDDSDLSEGFESDSSHDSARASEGSDSGSDKSLEGGGTAFDAETDSEMNSQESRSDLEDMEEEEGTRSPTLEPPRGRSEAPDSLNGPLGPSEASIASNLQAMSTQMFQTKRCFRLAPTFSNLLLQPTTNPHTSASHRPCVNGDVDKPSEPASEEGSESEGSESSGRSCRNERSIQEKLQVLMAEGLLPAVKVFLDWLRTNPDLIIVCAQSSQSLWNRLSVLLNLLPAAGELQESGLALCPEVQDLLEGCELPDLPSSLLLPEDMALRNLPPLRAAHRRFNFDTDRPLLSTLEESVVRICCIRSFGHFIARLQGSILQFNPEVGIFVSIAQSEQESLLQQAQAQFRMAQEEARRNRLMRDMAQLRLQLEVSQLEGSLQQPKAQSAMSPYLVPDTQALCHHLPVIRQLATSGRFIVIIPRTVIDGLDLLKKEHPGARDGIRYLEAEFKKGNRYIRCQKEVGKSFERHKLKRQDADAWTLYKILDSCKQLTLAQGAGEEDPSGMVTIITGLPLDNPSVLSGPMQAALQAAAHASVDIKNVLDFYKQWKEIG [SMG5]”, the “solubility change mitosis (log2)” value with HeLa Kyoto [1] is -0.207. Further, the “solubility in G1/S (log2)” value with HeLa Kyoto [2] was -0.176.
For “MSRKISKESKKVNISSSLESEDISLETTVPTDDISSSEEREGKVRITRQLIERKELLHNIQLLKIELSQKTMMIDNLKVDYLTKIEELEEKLNDALHQKQLLTLRLDNQLAFQQKDASKYQELMKQEMETILLRQKQLEETNLQLREKAGDVRRNLRDFELTEEQYIKLKAFPEDQLSIPEYVSVRFYELVNPLRKEICELQVKKNILAEELSTNKNQLKQLTETYEEDRKNYSEVQIRCQRLALELADTKQLIQQGDYRQENYDKVKSERDALEQEVIELRRKHEILEASHMIQTKERSELSKEVVTLEQTVTLLQKDKEYLNRQNMELSVRCAHEEDRLERLQAQLEESKKAREEMYEKYVASRDHYKTEYENKLHDELEQIRLKTNQEIDQLRNASREMYERENRNLREARDNAVAEKERAVMAEKDALEKHDQLLDRYRELQLSTESKVTEFLHQSKLKSFESERVQLLQEETARNLTQCQLECEKYQKKLEVLTKEFYSLQASSEKRITELQAQNSEHQARLDIYEKLEKELDEIIMQTAEIENEDEAERVLFSYGYGANVPTTAKRRLKQSVHLARRVLQLEKQNSLILKDLEHRKDQVTQLSQELDRANSLLNQTQQPYRYLIESVRQRDSKIDSLTESIAQLEKDVSNLNKEKSALLQTKNQMALDLEQLLNHREELAAMKQILVKMHSKHSENSLLLTKTEPKHVTENQKSKTLNVPKEHEDNIFTPKPTLFTKKEAPEWSKKQKMKT [PIBF1]”, in the data set with HeLa Kyoto [1], the “solubility change mitosis (log2)” value turned out to be 0.297. Further, the “solubility in G1/S (log2)” value in the data set with HeLa Kyoto [2] amounted to 0.069.
For “MSRRPCSCALRPPRCSCSASPSAVTAAGRPRPSDSCKEESSTLSVKMKCDFNCNHVHSGLKLVKPDDIGRLVSYTPAYLEGSCKDCIKDYERLSCIGSPIVSPRIVQLETESKRLHNKENQHVQQTLNSTNEIEALETSRLYEDSGYSSFSLQSGLSEHEEGSLLEENFGDSLQSCLLQIQSPDQYPNKNLLPVLHFEKVVCSTLKKNAKRNPKVDREMLKEIIARGNFRLQNIIGRKMGLECVDILSELFRRGLRHVLATILAQLSDMDLINVSKVSTTWKKILEDDKGAFQLYSKAIQRVTENNNKFSPHASTREYVMFRTPLASVQKSAAQTSLKKDAQTKLSNQGDQKGSTYSRHNEFSEVAKTLKKNESLKACIRCNSPAKYDCYLQRATCKREGCGFDYCTKCLCNYHTTKDCSDGKLLKASCKIGPLPGTKKSKKNLRRL [FBXO5]”, the “solubility change mitosis (log2)” value with HeLa Kyoto [1] came out at 0.249. Further, the “solubility in G1/S (log2)” value in the data set with HeLa Kyoto [2] is 0.273.
For “MSSEESYRAILRYLTNEREPYAPGTEGNVKRKIRKAAACYVVRGGTLYYQRRQRHRKTFAELEVVLQPERRRDLIEAAHLGPGGTHHTRHQTWHYLSKTYWWRGILKQVKDYIKQCSKCQEKLDRSRPISDVSEMLEELGLDLESGEESNESEDDLSNFTSSPTTASKPAKKKPVSKHELVFVDTKGVVKRSSPKHCQAVLKQLNEQRLSNQFCDVTLLIEGEEYKAHKSVLSANSEYFRDLFIEKGAVSSHEAVVDLSGFCKASFLPLLEFAYTSVLSFDFCSMADVAILARHLFMSEVLEICESVHKLMEEKQLTVYKKGEVQTVASTQDLRVQNGGTAPPVASSEGTTTSLPTELGDCEIVLLVNGELPEAEQNGEVGRQPEPQVSSEAESALSSVGCIADSHPEMESVDLITKNNQTELETSNNRENNTVSNIHPKLSKENVISSSPEDSGMGNDISAEDICAEDIPKHRQKVDQPLKDQENLVASTAKTDFGPDDDTYRSRLRQRSVNEGAYIRLHKGMEKKLQKRKAVPKSAVQQVAQKLVQRGKKMKQPKRDAKENTEEASHKCGECGMVFQRRYALIMHKLKHERARDYKCPLCKKQFQYSASLRAHLIRHTRKDAPSSSSSNSTSNEASGTSSEKGRTKREFICSICGRTLPKLYSLRIHMLKHTGVKPHACQVCGKTFIYKHGLKLHQSLHQSQKQFQCELCVKSFVTKRSLQEHMSIHTGESKYLCSVCGKSFHRGSGLSKHFKKHQPKPEVRGYHCTQCEKSFFEARDLRQHMNKHLGVKPFQCQFCDKCYSWKKDWYSHVKSHSVTEPYRCNICGKEFYEKALFRRHVKKATHGKKGRAKQNLERVCEKCGRKFTQLREYRRHMNNHEGVKPFECLTCGVAWADARSLKRHVRTHTGERPYVCPVCSEAYIDARTLRKHMTKFHRDYVPCKIMLEKDTLQFHNQGTQVAHAVSILTAGMQEQESSGPQELETVVVTGETMEALEAVAATEEYPSVSTLSDQSIMQVVNYVLAQQQGQKLSEVAEAIQTVKVEVAHISGGE [ZBTB11]”, in the data set with HeLa Kyoto [1], the “solubility change mitosis (log2)” value stood at 0.267. Also, the “solubility in G1/S (log2)” value with HeLa Kyoto [2] is -0.621.
Regarding “MSSGLWSQEKVTSPYWEERIFYLLLQECSVTDKQTQKLLKVPKGSIGQYIQDRSVGHSRIPSAKGKKNQIGLKILEQPHAVLFVDEKDVVEINEKFTELLLAITNCEERFSLFKNRNRLSKGLQIDVGCPVKVQLRSGEEKFPGVVRFRGPLLAERTVSGIFFGVELLEEGRGQGFTDGVYQGKQLFQCDEDCGVFVALDKLELIEDDDTALESDYAGPGDTMQVELPPLEINSRVSLKVGETIESGTVIFCDVLPGKESLGYFVGVDMDNPIGNWDGRFDGVQLCSFACVESTILLHINDIIPALSESVTQERRPPKLAFMSRGVGDKGSSSHNKPKATGSTSDPGNRNRSELFYTLNGSSVDSQPQSKSKNTWYIDEVAEDPAKSLTEISTDFDRSSPPLQPPPVNSLTTENRFHSLPFSLTKMPNTNGSIGHSPLSLSAQSVMEELNTAPVQESPPLAMPPGNSHGLEVGSLAEVKENPPFYGVIRWIGQPPGLNEVLAGLELEDECAGCTDGTFRGTRYFTCALKKALFVKLKSCRPDSRFASLQPVSNQIERCNSLAFGGYLSEVVEENTPPKMEKEGLEIMIGKKKGIQGHYNSCYLDSTLFCLFAFSSVLDTVLLRPKEKNDVEYYSETQELLRTEIVNPLRIYGYVCATKIMKLRKILEKVEAASGFTSEEKDPEEFLNILFHHILRVEPLLKIRSAGQKVQDCYFYQIFMEKNEKVGVPTIQQLLEWSFINSNLKFAEAPSCLIIQMPRFGKDFKLFKKIFPSLELNITDLLEDTPRQCRICGGLAMYECRECYDDPDISAGKIKQFCKTCNTQVHLHPKRLNHKYNPVSLPKDLPDWDWRHGCIPCQNMELFAVLCIETSHYVAFVKYGKDDSAWLFFDSMADRDGGQNGFNIPQVTPCPEVGEYLKMSLEDLHSLDSRRIQGCARRLLCDAYMCMYQSPTMSLYK”, the “solubility change mitosis (log2)” value in the data set with HeLa Kyoto [1] is -0.178. Besides, the “solubility in G1/S (log2)” value in the data set on HeLa Kyoto [2] came out at 0.0441.
